Starred links: 1 amine or outer side, 2 acyl side, 3 side chain; linkers in the order of their positions; H or OH if unused. Non-standard residues stand in square brackets, D forms with d. Groups on a side chain read outwards from the residue. *: point of attachment. C20 diacid = O=C(O)CCCCCCCCCCCCCCCCCCC(=O)*; C18 diacid = O=C(O)CCCCCCCCCCCCCCCCC(=O)*; C16 diacid = O=C(O)CCCCCCCCCCCCCCC(=O)*; γGlu = O=C(O)[C@H](CCC(=O)[*:2])N[*:1]; εLys = N[C@@H](CCCCN[*:1])C(=O)[*:2]; Trx = NC[C@H]1CC[C@H](C(=O)O)CC1; AEEA = NCCOCCOCC(=O)O; Aib = CC(C)(N)C(=O)O
T1: human amylin-3 (a) receptor (human, UniProt P30988 25-474; O60896 24-148)
T1 sequence (looked up) 1: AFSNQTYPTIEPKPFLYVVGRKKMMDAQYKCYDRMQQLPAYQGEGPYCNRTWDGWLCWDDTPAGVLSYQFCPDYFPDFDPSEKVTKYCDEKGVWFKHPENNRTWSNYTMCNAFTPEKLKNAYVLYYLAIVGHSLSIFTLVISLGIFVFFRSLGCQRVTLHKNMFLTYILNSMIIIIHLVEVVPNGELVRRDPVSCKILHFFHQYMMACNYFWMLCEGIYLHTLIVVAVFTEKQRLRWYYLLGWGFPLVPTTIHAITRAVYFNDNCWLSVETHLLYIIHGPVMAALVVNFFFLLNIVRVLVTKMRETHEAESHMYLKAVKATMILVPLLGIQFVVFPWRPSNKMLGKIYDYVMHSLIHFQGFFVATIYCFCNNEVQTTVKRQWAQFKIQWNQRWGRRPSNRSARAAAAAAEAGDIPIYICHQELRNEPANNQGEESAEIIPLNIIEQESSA
T1 sequence (looked up) 2: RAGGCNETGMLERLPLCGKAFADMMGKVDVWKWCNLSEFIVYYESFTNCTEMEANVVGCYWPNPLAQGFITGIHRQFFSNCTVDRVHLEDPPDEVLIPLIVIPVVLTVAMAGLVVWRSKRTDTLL


Legend:
human GLP-1 receptor = human GLP-1 receptor (human, UniProt P43220 24-463); test: cell-based or functional assay
[1] = target: T1, human amylin-3 (a) receptor; test: cell-based or functional assay

Binder | Human GLP-1R potency [EC50 (pM)] (human GLP-1 receptor) [pM] | Human AmyR3 potency [EC50 (pM)] [1] [pM]
Compound 0266 (peptide) peptide: H[Aib]EGTFTSDK([AEEA-AEEA-γGlu-Trx-C20 diacid])SSYLEEQAAREFIAWLVRGRGGGGEASELSTAALGRLSAELHELATLPRTETGSGSP-NH2 | 6.3 | 8.5
Compound 0042 (peptide) peptide: H[Aib]EGTFTSDVSSYLEGQAAKEFIAWLVRGRK([AEEA-AEEA-γGlu-C18 diacid])GGEASELSTAALGRLSAELHELATLPRTETGSGSP-NH2 | 16.2 | 10.8
Compound 0267 (peptide) peptide: HWEGTFTSDVSSYLEEQAAREFIEWLVRGK([AEEA-AEEA-γGlu-Trx-C20 diacid])GEASELSTAALGRLSAELHELATLPRTETGSGSP-NH2 | 28.5 | 45.3
Compound 0268 (peptide) peptide: HWEGTFTSDVSSYLEEQAAREFIAWLVRGRK([AEEA-AEEA-γGlu-Trx-C20 diacid])GGGGEASELSTAALGRLSAELHELATLPRTETGSGSP-NH2 | 26.4 | 14.4
Compound 0269 (peptide) peptide: HWEGTFTSDVSSYLEEQAAREFIEWLVRGRK([AEEA-AEEA-γGlu-Trx-C20 diacid])GGGGEASELSTAALGRLSAELHELATLPRTETGSGSP-NH2 | 7.7 | 7.5
Compound 0270 (peptide) peptide: HWEGTFTSDVSSYLEEK([AEEA-AEEA-γGlu-Trx-C20 diacid])AAREFIEWLVRGRGEASELSTAALGRLSAELHELATLPRTETGSGSP-NH2 | 6.3 | 8.6
Compound 0271 (peptide) peptide: HWEGTFTSDVSSYLEEK([AEEA-AEEA-γGlu-C18 diacid])AAREFIEWLVRGRGEASELSTAALGRLSAELHELATLPRTETGSGSP-NH2 | 4.6 | 15.2
Compound 0272 (peptide) peptide: HWEGTFTSDK([AEEA-AEEA-γGlu-Trx-C20 diacid])SSYLEEQAAREFIEWLVRGRGEASELSTAALGRLSAELHELATLPRTETGSGSP-NH2 | 9.2 | 11.3
Compound 0273 (peptide) peptide: HWEGTFTSDK([AEEA-AEEA-γGlu-C18 diacid])SSYLEEQAAREFIEWLVRGRGEASELSTAALGRLSAELHELATLPRTETGSGSP-NH2 | 24.9 | 18
Compound 0280 (peptide) peptide: H[Aib]EGTFTSDVSSYLEEQAAREFIAWLVRGK([AEEA-AEEA-γGlu-C16 diacid])GGGGGEASELSTAALGRLSAELHK([AEEA-AEEA-γGlu-C16 diacid])LATLPRTETGSGSP-NH2 | 34.3 | 18
Compound 0281 (peptide) peptide: H[Aib]EGTFTSDVSSYLEEQAAREFIAWLVRGK([AEEA-AEEA-γGlu-C16 diacid])GGGGGEASELSTAALGRLSAELHELK([AEEA-AEEA-γGlu-C16 diacid])TLPRTETGSGSP-NH2 | 35.2 | 114
Compound 0284 (peptide) peptide: H[Aib]EGTFTSDVSSYLEEQAAREFIAWLVRGK([AEEA-AEEA-γGlu-C16 diacid])GGGGGEASELSTAALGRLSAELHELATLK([AEEA-AEEA-γGlu-C16 diacid])RTETGSGSP-NH2 | 41.7 | 32.8
Compound 0044 (peptide) peptide: H[Aib]EGTFTSDVSSYLEGQAAK([εLys-AEEA-AEEA-γGlu-C18 diacid])EFIAWLVRGRGGGEASELSTAALGRLSAELHELATLPRTETGSGSP-NH2 | 16 | 9.1
Compound 0285 (peptide) peptide: H[Aib]EGTFTSDVSSYLEEQAAREFIAWLVRGK([AEEA-AEEA-γGlu-C16 diacid])GGGGGEASELSTAALGRLSAELHELATLPRTETGK([AEEA-AEEA-γGlu-C16 diacid])GSP-NH2 | 19 | 78.9
Compound 0292 (peptide) peptide: H[Aib]EGTFTSDK([AEEA-AEEA-γGlu-C16 diacid])SSYLEEQAAREFIAWLVRGRGGGGGASELSTAALGRLSK([AEEA-AEEA-γGlu-C16 diacid])ELHELATLPRTETGSGSP-NH2 | 12 | 33.8
Compound 0294 (peptide) peptide: H[Aib]EGTFTSDVSSYLEK([AEEA-AEEA-γGlu-C16 diacid])QAAREFIAWLVRGRGGGGGASELSTAALGRLSK([AEEA-AEEA-γGlu-C16 diacid])ELHELATLPRTETGSGSP-NH2 | 13.7 | 34.3
Compound 0295 (peptide) peptide: H[Aib]EGTFTSDVSSYLEEK([AEEA-AEEA-γGlu-C16 diacid])AAREFIAWLVRGRGGGGGASELSTAALGRLSK([AEEA-AEEA-γGlu-C16 diacid])ELHELATLPRTETGSGSP-NH2 | 4.8 | 32.7
Compound 0296 (peptide) peptide: H[Aib]EGTFTSDVSSYLEEQAARK([AEEA-AEEA-γGlu-C16 diacid])FIAWLVRGRGGGGGASELSTAALGRLSK([AEEA-AEEA-γGlu-C16 diacid])ELHELATLPRTETGSGSP-NH2 | 4 | 29.9
Compound 0297 (peptide) peptide: H[Aib]EGTFTSDVSSYLEEQAAREFIAWLVRK([AEEA-AEEA-γGlu-C16 diacid])RGGGGGASELSTAALGRLSK([AEEA-AEEA-γGlu-C16 diacid])ELHELATLPRTETGSGSP-NH2 | 30.2 | 46
Compound 0299 (peptide) peptide: H[Aib]EGTFTSDVSSYLEEK([AEEA-AEEA-γGlu-C16 diacid])AAREFIAWLVRGRGGGGGEASELSTAALGRLSAELHK([AEEA-AEEA-γGlu-C16 diacid])LATLPRTETGSGSP-NH2 | 6 | 11.5
Compound 0396 (peptide) peptide: H[Aib]EGTFTSDVSSYLEEK([AEEA-AEEA-γGlu-C16 diacid])AAREFIAWLVRGRGGGGGEASELSTAALGRLSAELHELK([AEEA-AEEA-γGlu-C16 diacid])TLPRTETGSGSP-NH2 | 4.8 | 32.8
Compound 0397 (peptide) peptide: H[Aib]EGTFTSDVSSYLEEK([AEEA-AEEA-γGlu-C16 diacid])AAREFIAWLVRGRGGGGGEASELSTAALGRLSAELHELATLK([AEEA-AEEA-γGlu-C16 diacid])RTETGSGSP-NH2 | 3.8 | 18.5
Compound 0411 (peptide) peptide: H[Aib]EGTFTSDVSSYLEEK([AEEA-AEEA-γGlu-C16 diacid])AAREFIAWLVRGRGGGGGEASELSTAALGRLSAELHELATLPRTETGK([AEEA-AEEA-γGlu-C16 diacid])GSP-NH2 | 3.5 | 45.9
Compound 0045 (peptide) peptide: H[Aib]EGTFTSDVSSYLEGQAAKEFIAWLVRGRK([εLys-AEEA-AEEA-γGlu-C18 diacid])GGEASELSTAALGRLSAELHELATLPRTETGSGSP-NH2 | 19.4 | 25.9
Compound 0414 (peptide) peptide: HAEGTFTSDVSSYLEEK([AEEA-AEEA-γGlu-Trx-C20 diacid])AAREFIEWLVRGRGEASELSTAALGRLSAELHELATLPRTETGSGSP-NH2 | 11.2 | 17.7
Compound 0415 (peptide) peptide: H[Aib]EGTFTSDVSSYLEEK([AEEA-AEEA-γGlu-Trx-C20 diacid])AAREFIEWLVRGRGEASELSTAALGRLSAELHELATLPRTETGSGSP-NH2 | 10.3 | 16.1
Compound 0416 (peptide) peptide: HAEGTFTSK([AEEA-AEEA-γGlu-Trx-C20 diacid])VSSYLEEQAAREFIEWLVRGRGEASELSTAALGRLSAELHELATLPRTETGSGSP-NH2 | 105 | 18.3

Source: patent US20260132182A1 (published 2026)
